Among the data in patent US20120020971A1 are Kd values, retold here.

Common to all, as to assay: FortéBio biosensor (biolayer interferometry), HA0 protein
On the technique in general: BLI is a label-free optical method that tracks binding on a fibre tip over time.

The target of test [1] is HA0 protein from the H5 clade (influenza A virus, H5 clade (strain not stated)).
In test [2] the target is HA0 protein from the H7 clade (influenza A virus, H7 clade (strain not stated)).
For test [3], the target named is HA0 protein from the H9 clade (influenza A virus, H9 clade (strain not stated)).
Test [4] addresses HA0 protein of the H1 clade (influenza A virus, H1 clade (strain not stated)).
The target of test [5] is HA0 protein from the H3 clade (influenza A virus, H3 clade (strain not stated)).

B1: MAB53 (antibody, V domains shown)
VH: QVQLVQSGAEVRKPGSSVKVSCKVSGGIIRKYAINWVRQAPGQGLEWMGGIIAIFNTANYAQKFQGRVTITADESTSTVYMELSSLRSEDTALYYCARGMNYYSDYFDYWGQGSLVTVSP
VL: EIVLTQSPGTLSLSPGERATLSCRASQSVRSNNLAWYQHKPGQAPRLLIFGASSRATGIPDRFSGSGSGTDFTLTISRLEPEDFAVYYCQQYGSSPALTFGGGTKVEIKR
With B1, the Kd – broadly, the concentration at which binding is half-saturated – worked out at 6000 pM in test [1], 70 pM in test [2], 30 pM in test [3] and 60 pM in test [4].

B2: MAB8 (antibody, V domains shown)
VH: EVQLVESGGGLVKPGGSLRLSCAASGFTFSTYTMSWVRQAPGQGLEWVSSITRTSSNIYYADSVEGRFTISRDNAKNSLYLQMHSLRVEDTAVYYCARISGVVGPVPFDYWGQGTLITVSS
VL: DIQMTQSPSSLSASVGDRVTITCRASQTISKYLNWYQQKPGRAPKLLIYSASSLQSGVPSRFTGSGSGTDFTLTITSLQPEDFATYYCQQSYRPSQITFGPGTKVDIKR
Take B2: the Kd in test [5] amounted to 16000 pM; in test [1], 200 pM; in test [4], 9000 pM.
